Starred links: 1 amine or outer side, 2 acyl side, 3 side chain; linkers in the order of their positions; H or OH if unused. Positions of bridges follow the written chain, without caps; N, C: chain ends. Non-standard residues stand in square brackets, D forms with d. Residues, ends and D or L forms follow the SMILES beside them. βAsp = O=C(O)[C@H](CC(=O)[*:2])N[*:1]; dPhg = N[C@@H](C(=O)O)c1ccccc1; Phg = N[C@H](C(=O)O)c1ccccc1
What was measured:
[1] = system: MB49-Luc cells; test: Cell adhesion assay on coated microtiter plates; assay type: cell-based, murine; settings: MB49-Luc cells; plates coated with 250 μg/ml GNRs
Protocol: (§1) The plates were washed and blocked with 2% BSA in DMEM or RPMI-1640 (200 μl/well, 1 h). MB49-Luc and 5637 cells were detached with DPBS-E, washed twice with DPBS, and suspended in DMEM or RPMI-1640 containing 0.1% BSA (binding buffer-3), and added to the coated-plates (1.5×10^5 cells/well, 100 μl). After 1-2 h of incubation at 37° C., 5% CO2, the plates were washed with binding buffer-3. Adherent cells were fixed and stained with 0.5% crystal violet in 20% methanol. After washing with water, the dye was extracted from cells using a 10% acetic acid solution (140 μl/well) and the absorbance at 570 nm was measured using a microplate reader.

[2] = system: 5637 cells; test: Cell adhesion assay on coated microtiter plates; assay type: cell-based, human; settings: plates coated with 250 μg/ml GNRs
Protocol: as §1

[3] = system: MB49-Luc derived orthotopic bladder tumor; test: PAI of orthotopic MB49-Luc bladder tumor after intravesical instillation; assay type: in vivo, mice; settings: intravesical co-administration
Protocol: Murine orthotopic bladder tumor model: All procedures and studies involving mice were approved by the Institutional Animal Care and Use Committee of San Raffaele Scientific Institute and performed according to the prescribed guidelines (IACUC, approval number 942). Female albino C57BL/6J mice (9 weeks old, weighing about 20 g, Charles River Laboratories, Italy) were anesthetized with ketamine (80 mg/kg) and xylazine (15 mg/kg) and kept in dorsal position. Using a 24-gauge catheter, the bladder of each mouse was emptied and instilled with or without MB49-Luc cells (10^5 cells/100 μl in DPBS). Thirty minutes later the catheter was removed, and mice were allowed to recover and returned to their cage. Tumor growth was monitored by measuring the tumor volume through US imaging (see below) and in vivo bioluminescent quantification after administration of luciferin (15 mg/kg, intra peritoneum) using the non-invasive In Vivo Imaging System (IVIS, PerkinElmer, USA).
US and PAI of GNRs@Chit and GNRs@Chit-Iso4: High-resolution US and PA imaging have been acquired using the Vevo LAZR-X platform (FUJIFILM VisualSonics, Inc., Toronto, ON, Canada). The imaging platform includes a high frequency US system (Vevo 3100) combined with an Nd:YAG nano-second pulsed laser with repetition rate of 20 Hz. The linear US transducer array Mx 550D consists of 256 elements with a nominal center frequency of 40 MHz (25-55 MHz bandwidth) and a spatial resolution of 40 μm with a maximum imaging depth of 15 mm. Light from the laser is delivered to the tissue through optical fibers mounted on either side of the transducer. During volumetric US-PA acquisitions, a stepper motor is used for the linear translation of the US transducer and optical fibers along the sample. The linear stepper motor moves in steps of a minimum of 0:1 mm while capturing 2-D parallel images, for a maximum 3D range distance of 6.4 cm.
3D B mode scan was carried out for in vitro (drop) and in vivo (mouse bladder) studies. The photoacoustic spectra between 680 nm and 970 nm were scanned with a step size of 5 nm; for the in vivo studies (murine bladder) the 3D multispectral PA scans were acquired selecting PA spectral curve of tissue components melanin, deoxy- and oxy-generated blood, and GNRs; the processed wavelengths (680; 722; 764; 810; 924; 970 nm) were automatically selected from the spectral curve used to spectrally unmix the GNRs signal from other endogenous tissue chromophore signals such as oxy, deoxy hemoglobin. The algorithm reported by Luke et al was used to select these wavelengths which is ideal for separating the signal from GNRs from other endogenous absorbers.
Data analyses were conducted using the Vevo® Lab software; volumes of interest were obtained by manually drawing Volumes of Interest (VOIs) on 3D B-mode images. GNRs, melanin, oxy- and deoxy-hemoglobin content were estimated through spectral unmixing analyses of the spectroscopic data.

[4] = target: T1, human integrin α5β1 (Homo sapiens, UniProt P05556+P08648); test: α5β1 integrin binding assay with HRP conjugates; settings: for binding of HRP conjugate to plates coated with α5β1: no detergent in buffers, OPD substrate
T1 construct: purchased Immunological Sciences (Rome, Italy)
Protocol: The final products were called Iso4-HRP and ARA-HRP. The conjugates were diluted (range 0-400 nM) in 25 mM Tris-HCl, pH 7.4, containing 150 mM sodium chloride, 1 mM magnesium chloride, 1 mM manganese chloride and 1% BSA (binding buffer-2) and added to 96-well plate polyvinyl chloride (PVC) microtiter plates (Carlo Erba, cod. FA5280100) coated with or without α5β1 (4 μg/ml) and left to incubate for 2 h. The plates were washed with 25 mM Tris-HCl, pH 7.4, containing 150 mM of sodium chloride, 1 mM of magnesium chloride, 1 mM of manganese chloride, and bound peroxidase was detected by adding a chromogenic solution (o-phenylenediamine dihydrochloride, OPD). The chromogenic reaction was stopped by adding 1 N sulfuric acid. The absorbance at 490 nm was then measured using a microtiter plate reader. The effect of human urine (from a healthy donor) on the binding of Iso4-HRP was studied as described above by mixing Iso4-HRP (300 nM final concentration) and various amounts of urine diluted in binding buffer-2.

[5] = system: MB49-Luc cells; test: Binding of Iso4-Qdot / ARA-Qdot to cells (FACS); assay type: cell-based, murine; settings: flow cytometry, 2 h at 37° C.
Protocol: (§2) The binding of Iso4-Qdot and ARA-Qdot to MB49-Luc and 5637 cells was assessed through FACS and fluorescence microscopy experiments. FACS analysis was carried out as follows: the cells were detached with DPBS containing 5 mM EDTA pH 8.0 (DPBS-E), washed with DPBS, and suspended in 25 mM Hepes buffer, pH 7.4, containing 150 mM sodium chloride, 1 mM magnesium chloride, 1 mM manganese chloride, 1% BSA (binding buffer-1) and Iso4- or ARA-Qdot (range 30-0 nM, 5×10^5 cells/100 μl tube). After 2 h of incubation at 37° C., the cells were washed with binding buffer-1 without BSA and fixed with 4% formaldehyde. Bound fluorescence was detected using a CytoFLEX S cytofluorimeter (Beckman Coulter). The binding of Iso4-Qdot and ARA-Qdot to living 5637 cells was analyzed as follows: 5637 cells were cultured in a 96-well clear bottom black plate (5×10^4 cells/well) for 48 h, 5% CO2, 37° C. The plates were washed with binding buffer-1 and incubated with Iso4-Qdot or ARA-Qdot solution (30 nM in binding buffer-1) for 2 h at 37° C., 5% CO2. The cells were then washed with binding buffer-1, and fixed with 3% paraformaldehyde and 2% sucrose for 20 min. Bound fluorescence was acquired using the Cellomics ArrayScan XTI Studio Scan (Thermo Fischer Scientific) system.

[6] = system: 5637 cells; test: Binding of Iso4-Qdot / ARA-Qdot to cells (FACS, fluorescence microscopy); assay type: cell-based, human; settings: flow cytometry and fluorescence microscopy, 2 h at 37° C.
Protocol: as §2

[7] = target: mouse integrin α5 subunit on the surface of MB49-Luc cells (mouse) (UniProt P11688); test: flow cytometry on MB49-Luc cells, 5 µg/ml antibody
[8] = target: human integrin α5 subunit on the surface of human urothelial and bladder carcinoma cells (human) (UniProt P08648); test: flow cytometry on PCS-420-010 primary urothelial cells, 5 µg/ml antibody
[9] = target: human integrin α5 subunit on the surface of human urothelial and bladder carcinoma cells (human) (UniProt P08648); test: flow cytometry on HT1376 bladder carcinoma cells, 5 µg/ml antibody
[10] = target: human integrin α5 subunit on the surface of human urothelial and bladder carcinoma cells (human) (UniProt P08648); test: flow cytometry on HBLAK primary urothelial cells, 5 µg/ml antibody
[11] = target: human integrin α5 subunit on the surface of human urothelial and bladder carcinoma cells (human) (UniProt P08648); test: flow cytometry on RT4 bladder carcinoma cells, 5 µg/ml antibody
[12] = target: human integrin α5 subunit on the surface of human urothelial and bladder carcinoma cells (human) (UniProt P08648); test: flow cytometry on RT112 bladder carcinoma cells, 5 µg/ml antibody
[13] = target: human integrin α5 subunit on the surface of human urothelial and bladder carcinoma cells (human) (UniProt P08648); test: flow cytometry on 5637 bladder carcinoma cells, 5 µg/ml antibody
[14] = target: mouse integrin β1 subunit on the surface of MB49-Luc cells (mouse) (UniProt P09055); test: flow cytometry on MB49-Luc cells, 5 µg/ml antibody
[15] = target: human integrin β1 subunit on the surface of human urothelial and bladder carcinoma cells (human) (UniProt P05556); test: flow cytometry on PCS-420-010 primary urothelial cells, 5 µg/ml antibody
[16] = target: human integrin β1 subunit on the surface of human urothelial and bladder carcinoma cells (human) (UniProt P05556); test: flow cytometry on HT1376 bladder carcinoma cells, 5 µg/ml antibody
[17] = target: human integrin β1 subunit on the surface of human urothelial and bladder carcinoma cells (human) (UniProt P05556); test: flow cytometry on HBLAK primary urothelial cells, 5 µg/ml antibody
[18] = target: human integrin β1 subunit on the surface of human urothelial and bladder carcinoma cells (human) (UniProt P05556); test: flow cytometry on RT4 bladder carcinoma cells, 5 µg/ml antibody
[19] = target: human integrin β1 subunit on the surface of human urothelial and bladder carcinoma cells (human) (UniProt P05556); test: flow cytometry on RT112 bladder carcinoma cells, 5 µg/ml antibody
[20] = target: human integrin β1 subunit on the surface of human urothelial and bladder carcinoma cells (human) (UniProt P05556); test: flow cytometry on 5637 bladder carcinoma cells, 5 µg/ml antibody
[21] = target: α5β1 integrin on murine MB49-Luc bladder cancer cells (mouse, UniProt P11688 45-1053; P09055 21-798); test: cell-based or functional assay
[22] = target: α5β1 integrin on human 5637 bladder cancer cells (human, UniProt P08648 42-1049; P05556 21-798); test: cell-based or functional assay
Sequence of α5β1 integrin on human 5637 bladder cancer cells (P08648 42-1049, chain 1 of 2): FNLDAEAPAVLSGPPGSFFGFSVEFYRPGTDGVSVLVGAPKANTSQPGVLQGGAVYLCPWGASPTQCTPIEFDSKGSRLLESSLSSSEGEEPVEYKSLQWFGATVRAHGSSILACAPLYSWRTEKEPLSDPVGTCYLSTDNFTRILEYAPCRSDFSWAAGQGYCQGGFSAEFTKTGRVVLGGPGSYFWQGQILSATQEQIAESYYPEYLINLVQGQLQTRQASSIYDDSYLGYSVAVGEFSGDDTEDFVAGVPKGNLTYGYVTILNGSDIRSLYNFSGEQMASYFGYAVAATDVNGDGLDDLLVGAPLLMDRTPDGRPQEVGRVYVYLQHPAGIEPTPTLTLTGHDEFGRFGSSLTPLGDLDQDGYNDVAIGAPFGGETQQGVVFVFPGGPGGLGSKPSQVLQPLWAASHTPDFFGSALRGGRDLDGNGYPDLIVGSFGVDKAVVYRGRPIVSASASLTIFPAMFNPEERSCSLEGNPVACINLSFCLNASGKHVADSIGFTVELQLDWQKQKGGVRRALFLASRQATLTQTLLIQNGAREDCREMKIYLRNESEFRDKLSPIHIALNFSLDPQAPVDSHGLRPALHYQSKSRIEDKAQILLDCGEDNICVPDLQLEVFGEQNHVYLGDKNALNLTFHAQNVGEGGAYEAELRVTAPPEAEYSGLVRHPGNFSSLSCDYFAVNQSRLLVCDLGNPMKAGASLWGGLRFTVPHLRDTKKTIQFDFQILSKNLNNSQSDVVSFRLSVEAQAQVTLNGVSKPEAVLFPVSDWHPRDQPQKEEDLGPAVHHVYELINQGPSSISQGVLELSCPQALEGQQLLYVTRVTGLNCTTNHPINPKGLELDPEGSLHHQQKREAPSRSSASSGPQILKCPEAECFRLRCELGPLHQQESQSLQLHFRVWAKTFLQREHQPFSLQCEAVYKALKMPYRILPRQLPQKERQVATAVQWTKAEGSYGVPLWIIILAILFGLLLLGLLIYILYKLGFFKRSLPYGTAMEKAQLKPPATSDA
Sequence of α5β1 integrin on human 5637 bladder cancer cells (P05556 21-798, chain 2 of 2): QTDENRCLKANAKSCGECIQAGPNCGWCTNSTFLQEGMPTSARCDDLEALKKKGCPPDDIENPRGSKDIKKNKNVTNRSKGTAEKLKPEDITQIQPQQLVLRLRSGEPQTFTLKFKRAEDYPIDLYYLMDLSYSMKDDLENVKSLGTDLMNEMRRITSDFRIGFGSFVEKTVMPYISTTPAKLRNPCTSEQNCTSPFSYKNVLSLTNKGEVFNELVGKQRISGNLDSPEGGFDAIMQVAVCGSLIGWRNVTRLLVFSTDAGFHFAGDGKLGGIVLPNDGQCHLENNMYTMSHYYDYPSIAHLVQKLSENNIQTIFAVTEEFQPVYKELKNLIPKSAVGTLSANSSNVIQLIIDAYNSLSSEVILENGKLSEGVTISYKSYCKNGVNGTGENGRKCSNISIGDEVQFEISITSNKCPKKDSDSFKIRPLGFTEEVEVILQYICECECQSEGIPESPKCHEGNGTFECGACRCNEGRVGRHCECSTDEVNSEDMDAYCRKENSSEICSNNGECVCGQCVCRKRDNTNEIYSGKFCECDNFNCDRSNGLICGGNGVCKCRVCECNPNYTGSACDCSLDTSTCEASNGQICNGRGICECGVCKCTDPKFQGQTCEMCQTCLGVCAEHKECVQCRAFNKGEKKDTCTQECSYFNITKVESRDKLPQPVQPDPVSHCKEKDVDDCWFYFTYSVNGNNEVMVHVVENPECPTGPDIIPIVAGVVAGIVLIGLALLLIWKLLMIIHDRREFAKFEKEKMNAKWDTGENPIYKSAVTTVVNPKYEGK

Sequence of human integrin α5 subunit on the surface of human urothelial and bladder carcinoma cells (human) (P08648 42-1049): as the sequence (P08648 42-1049, chain 1 of 2) above
Sequence of human integrin β1 subunit on the surface of human urothelial and bladder carcinoma cells (human) (P05556 21-798): as the sequence (P05556 21-798, chain 2 of 2) above
T1 sequence (P08648 42-894 limits assumed): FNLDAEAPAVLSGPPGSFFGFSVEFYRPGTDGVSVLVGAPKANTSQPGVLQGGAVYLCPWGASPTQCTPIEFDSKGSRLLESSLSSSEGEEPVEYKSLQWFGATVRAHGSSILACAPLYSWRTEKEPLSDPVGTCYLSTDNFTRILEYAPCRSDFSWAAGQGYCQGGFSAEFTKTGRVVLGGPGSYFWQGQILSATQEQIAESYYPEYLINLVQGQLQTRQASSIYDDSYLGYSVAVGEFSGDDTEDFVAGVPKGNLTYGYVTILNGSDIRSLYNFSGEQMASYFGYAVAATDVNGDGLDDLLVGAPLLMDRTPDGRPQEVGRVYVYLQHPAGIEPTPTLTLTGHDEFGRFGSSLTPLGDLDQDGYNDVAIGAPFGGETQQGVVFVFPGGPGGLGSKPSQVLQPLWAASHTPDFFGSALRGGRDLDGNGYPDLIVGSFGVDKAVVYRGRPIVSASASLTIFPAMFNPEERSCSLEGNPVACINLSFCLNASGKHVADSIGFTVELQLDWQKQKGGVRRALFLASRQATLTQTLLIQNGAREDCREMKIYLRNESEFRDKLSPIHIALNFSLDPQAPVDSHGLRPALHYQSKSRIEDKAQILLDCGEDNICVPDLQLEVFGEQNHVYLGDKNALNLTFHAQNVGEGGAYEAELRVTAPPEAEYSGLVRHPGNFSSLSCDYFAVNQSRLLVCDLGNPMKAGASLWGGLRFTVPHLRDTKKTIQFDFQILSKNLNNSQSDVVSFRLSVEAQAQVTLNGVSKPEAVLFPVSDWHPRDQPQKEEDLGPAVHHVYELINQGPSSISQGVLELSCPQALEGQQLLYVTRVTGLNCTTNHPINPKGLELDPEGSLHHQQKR
T1 sequence (P08648 895-1049 partner limits assumed): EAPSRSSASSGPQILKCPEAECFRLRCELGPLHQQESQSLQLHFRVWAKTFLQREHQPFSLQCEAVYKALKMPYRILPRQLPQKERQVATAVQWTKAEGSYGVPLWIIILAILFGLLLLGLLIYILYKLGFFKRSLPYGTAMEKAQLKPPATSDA
T1 sequence (P05556 21-798): as the sequence (P05556 21-798, chain 2 of 2) above
Sequence of mouse integrin β1 subunit on the surface of MB49-Luc cells (mouse) (P09055 21-798): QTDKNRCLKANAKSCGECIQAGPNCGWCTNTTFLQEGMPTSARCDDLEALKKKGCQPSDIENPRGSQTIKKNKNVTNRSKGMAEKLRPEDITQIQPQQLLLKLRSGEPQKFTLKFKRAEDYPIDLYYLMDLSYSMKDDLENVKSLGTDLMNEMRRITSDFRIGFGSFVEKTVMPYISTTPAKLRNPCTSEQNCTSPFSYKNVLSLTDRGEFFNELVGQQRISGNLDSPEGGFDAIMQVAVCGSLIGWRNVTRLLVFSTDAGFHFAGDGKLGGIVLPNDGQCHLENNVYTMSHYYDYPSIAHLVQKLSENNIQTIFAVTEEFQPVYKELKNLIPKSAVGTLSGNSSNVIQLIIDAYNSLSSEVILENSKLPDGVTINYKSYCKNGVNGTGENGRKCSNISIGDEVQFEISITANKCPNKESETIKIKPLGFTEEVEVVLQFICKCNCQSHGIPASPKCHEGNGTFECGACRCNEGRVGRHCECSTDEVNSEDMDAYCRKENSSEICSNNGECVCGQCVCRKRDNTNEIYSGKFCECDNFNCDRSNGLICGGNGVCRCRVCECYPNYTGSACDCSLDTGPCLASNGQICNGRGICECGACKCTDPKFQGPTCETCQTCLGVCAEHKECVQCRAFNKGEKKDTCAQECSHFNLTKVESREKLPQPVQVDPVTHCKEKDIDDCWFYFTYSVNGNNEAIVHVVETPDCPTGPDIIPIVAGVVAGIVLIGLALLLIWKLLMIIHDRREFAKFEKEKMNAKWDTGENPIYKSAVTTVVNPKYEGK
Sequence of mouse integrin α5 subunit on the surface of MB49-Luc cells (mouse) (P11688 45-1053): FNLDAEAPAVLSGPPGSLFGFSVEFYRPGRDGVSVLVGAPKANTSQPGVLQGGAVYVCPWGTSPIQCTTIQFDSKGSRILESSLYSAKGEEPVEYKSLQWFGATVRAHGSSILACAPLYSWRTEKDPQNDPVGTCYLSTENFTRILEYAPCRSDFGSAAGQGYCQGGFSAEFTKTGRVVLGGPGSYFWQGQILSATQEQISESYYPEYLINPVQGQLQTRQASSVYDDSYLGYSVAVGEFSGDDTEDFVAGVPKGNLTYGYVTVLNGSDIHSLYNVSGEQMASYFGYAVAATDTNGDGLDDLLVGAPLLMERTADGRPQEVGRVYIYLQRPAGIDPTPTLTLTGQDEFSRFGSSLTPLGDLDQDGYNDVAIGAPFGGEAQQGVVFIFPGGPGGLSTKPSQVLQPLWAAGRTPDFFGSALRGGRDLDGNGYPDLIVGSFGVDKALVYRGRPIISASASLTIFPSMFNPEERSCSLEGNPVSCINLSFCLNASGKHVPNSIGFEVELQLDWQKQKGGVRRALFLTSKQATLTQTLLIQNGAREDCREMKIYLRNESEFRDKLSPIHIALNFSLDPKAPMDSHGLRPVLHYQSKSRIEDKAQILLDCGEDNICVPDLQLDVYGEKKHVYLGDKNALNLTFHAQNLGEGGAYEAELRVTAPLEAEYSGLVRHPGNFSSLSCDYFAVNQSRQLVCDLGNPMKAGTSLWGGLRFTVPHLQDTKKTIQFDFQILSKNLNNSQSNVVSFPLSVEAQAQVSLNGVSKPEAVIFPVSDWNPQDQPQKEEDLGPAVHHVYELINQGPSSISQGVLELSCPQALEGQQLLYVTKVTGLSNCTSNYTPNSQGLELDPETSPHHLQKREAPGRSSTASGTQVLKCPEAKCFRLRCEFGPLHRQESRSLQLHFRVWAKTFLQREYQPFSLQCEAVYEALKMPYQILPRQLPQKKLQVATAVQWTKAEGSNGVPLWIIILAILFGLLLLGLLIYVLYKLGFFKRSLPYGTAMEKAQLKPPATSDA
Sequence of α5β1 integrin on murine MB49-Luc bladder cancer cells (P11688 45-1053, chain 1 of 2): as the sequence (P11688 45-1053) above
Sequence of α5β1 integrin on murine MB49-Luc bladder cancer cells (P09055 21-798, chain 2 of 2): as the sequence (P09055 21-798) above

N=C(N)NCCC[C@@H]1NC(=O)CNC(=O)C[C@@H](C(=O)O)NC(=O)[C@H](c2ccccc2)NC(=O)[C@H](CS)NC(=O)CNC1=O [Iso4, c(CphgisoDGRG), reference compound] (GRGC[Phg]D-OH; lactam N-6)
effect of excess free peptide on cell adhesion to GNRs@Chit-Iso4-coated plates [1]: completely inhibited cell adhesion
effect of excess free peptide on cell adhesion to GNRs@Chit-Iso4-coated plates [2]: completely inhibited cell adhesion
effect of co-administered excess free peptide on binding of GNR@Chit-Iso4 to MB49-Luc tumors [3]: reduced

ARA-HRP: HRP control conjugate using the ARA peptide instead of Iso4
binding of HRP conjugate to plates coated with α5β1 [4]: but not ARA-HRP, could bind α5β1 in a dose dependent manner

ARA-Qdot: c(CGARAG) peptide coupled to Qdot, negative control (cyclo(CGARAG); not fully specified (residue 1); also: coupled to Qdot605 quantum dot via Cys thiol)
binding of Qdot conjugate to cells [5]: but not the ARA-Qdot, bound these cells
binding of Qdot conjugate to cells [6]: but not the ARA-Qdot, bound these cells

Iso4-HRP: Iso4 conjugated to maleimide-activated horseradish peroxidase via thiol group
recovery of binding to α5β1 in human urine ([4]; in 90% of urine, Iso4-HRP 300 nM): about 55%
binding of HRP conjugate to plates coated with α5β1 [4]: could bind α5β1 in a dose dependent manner

Iso4-Qdot: Iso4 coupled to fluorescent nanoparticles (Quantum Dots, Qdot) via the sulfhydryl group of the cysteine
binding of Qdot conjugate to cells [5]: bound these cells
binding of Qdot conjugate to cells [6]: bound these cells

anti-α5 integrin hamster monoclonal antibody, clone HMα5-1
Fold (mean fluorescence intensity over isotype control) [7]: 3.79 fold

anti-α5 integrin mouse monoclonal antibody, clone P1D6
Fold (median fluorescence intensity over isotype control) [8]: 1.5 fold
Fold (median fluorescence intensity over isotype control) [9]: 4.1 fold
Fold (median fluorescence intensity over isotype control) [10]: 2.1 fold
Fold (median fluorescence intensity over isotype control) [11]: 6 fold
Fold (median fluorescence intensity over isotype control) [12]: 5.8 fold
Fold (median fluorescence intensity over isotype control) [13]: 1.9 fold

anti-β1 integrin hamster monoclonal antibody, clone HMβ1-1
Fold (mean fluorescence intensity over isotype control) [14]: 8.02 fold

anti-β1 integrin mouse monoclonal antibody, clone P5D2
Fold (median fluorescence intensity over isotype control) [15]: 1.2 fold
Fold (median fluorescence intensity over isotype control) [16]: 11.9 fold
Fold (median fluorescence intensity over isotype control) [17]: 0.8 fold
Fold (median fluorescence intensity over isotype control) [18]: 18.6 fold
Fold (median fluorescence intensity over isotype control) [19]: 38.7 fold
Fold (median fluorescence intensity over isotype control) [20]: 40.5 fold

B1: GNRs@Chit-Iso4 (gold nanorods coated with thiolated chitosan, carrying Iso4 via maleimide-PEG12-NHS) (other)
peptide: cyclo(C[dPhg][βAsp]GRG)
modifications: not fully specified (residue 1); also: Cys thiol coupled via maleimide-PEG12-NHS linker to thiolated-chitosan-coated gold nanorods
effective concentration 50 (EC50) of cell adhesion to plates coated with GNRs@Chit-Iso4 [21]: 0.73 mg/L
effective concentration 50 (EC50) of cell adhesion to plates coated with GNRs@Chit-Iso4 [22]: 1.3 mg/L
